For one data set, the target named is T1, SDHC (Homo sapiens, UniProt Q99643).
T1 construct: recombinant Flag-tagged SDHC, transient expression in HEK293T, anti-Flag M2 purified
T1 sequence (Q99643 30-169): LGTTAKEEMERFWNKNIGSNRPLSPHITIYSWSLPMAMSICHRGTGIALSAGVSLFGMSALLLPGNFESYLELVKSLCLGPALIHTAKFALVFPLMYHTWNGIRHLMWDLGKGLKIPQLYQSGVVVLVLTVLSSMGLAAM
In words: DARTS (Pronase proteolysis, western blot). The following applies: 1 mM aspirin, 1 h; Pronase 1:2000, room temperature, 30 min. Type of data set: binding.

For the next data set, the target named is T2, SDHA (Homo sapiens, UniProt P31040).
T2 construct: recombinant Flag-tagged SDHA, transient expression in HEK293T, anti-Flag M2 purified
T2 sequence (P31040 43-664): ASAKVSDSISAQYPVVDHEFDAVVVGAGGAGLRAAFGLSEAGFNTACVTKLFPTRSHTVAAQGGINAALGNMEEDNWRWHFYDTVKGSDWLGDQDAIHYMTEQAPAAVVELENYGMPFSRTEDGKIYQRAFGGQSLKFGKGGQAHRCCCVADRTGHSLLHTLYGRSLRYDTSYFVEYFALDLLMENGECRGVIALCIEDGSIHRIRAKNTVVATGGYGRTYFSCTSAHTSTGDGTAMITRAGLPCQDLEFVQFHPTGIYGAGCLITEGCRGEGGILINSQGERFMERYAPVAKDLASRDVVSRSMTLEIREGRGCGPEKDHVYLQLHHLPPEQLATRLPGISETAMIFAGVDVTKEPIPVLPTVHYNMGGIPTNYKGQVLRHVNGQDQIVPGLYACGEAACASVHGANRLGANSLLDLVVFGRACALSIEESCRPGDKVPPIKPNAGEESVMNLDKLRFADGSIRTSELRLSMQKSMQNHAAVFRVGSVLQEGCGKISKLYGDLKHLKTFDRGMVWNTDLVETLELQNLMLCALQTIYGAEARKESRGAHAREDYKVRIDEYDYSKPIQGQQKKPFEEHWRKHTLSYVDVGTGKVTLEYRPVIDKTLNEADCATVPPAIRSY
In words: DARTS (Pronase proteolysis, western blot). Type of data set: binding. The following applies: 1 mM aspirin, 1 h; Pronase 1:2000, room temperature, 30 min.

The target in another data set is T3, MBD1 (UniProt Q9UIS9 1-605).
T3 sequence: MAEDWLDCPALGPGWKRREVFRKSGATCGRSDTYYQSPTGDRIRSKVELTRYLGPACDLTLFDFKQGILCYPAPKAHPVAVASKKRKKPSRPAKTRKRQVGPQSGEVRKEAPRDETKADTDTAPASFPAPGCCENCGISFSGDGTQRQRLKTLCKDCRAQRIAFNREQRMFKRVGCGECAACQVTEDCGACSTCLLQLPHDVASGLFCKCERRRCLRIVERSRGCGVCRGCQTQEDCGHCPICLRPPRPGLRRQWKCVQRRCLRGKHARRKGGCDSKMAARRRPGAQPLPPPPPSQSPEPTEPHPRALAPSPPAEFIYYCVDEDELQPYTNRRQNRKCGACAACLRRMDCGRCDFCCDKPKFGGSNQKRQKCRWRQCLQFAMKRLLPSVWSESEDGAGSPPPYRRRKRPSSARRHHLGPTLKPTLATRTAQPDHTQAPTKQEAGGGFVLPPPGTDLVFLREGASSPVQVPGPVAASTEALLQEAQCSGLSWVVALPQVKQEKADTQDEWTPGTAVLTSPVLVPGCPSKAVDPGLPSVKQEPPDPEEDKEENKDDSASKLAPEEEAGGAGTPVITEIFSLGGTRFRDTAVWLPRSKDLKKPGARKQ
In words: EMSA; EMSA Kit (Invitrogen), buffer, salt and pH not stated; 15 °C, 30 min; 6% native polyacrylamide gel. The following applies: protein: recombinant; tags: His6 (pET22b). For orientation: A gel shift assay detects complexes by their altered migration in electrophoresis.

In a further data set the target is c-Fos (UniProt P01100 1-380). Described as above. The following applies: protein: recombinant; tags: His6 (pET22b); chain copies: 2.
Sequence of c-Fos (P01100 whole entry): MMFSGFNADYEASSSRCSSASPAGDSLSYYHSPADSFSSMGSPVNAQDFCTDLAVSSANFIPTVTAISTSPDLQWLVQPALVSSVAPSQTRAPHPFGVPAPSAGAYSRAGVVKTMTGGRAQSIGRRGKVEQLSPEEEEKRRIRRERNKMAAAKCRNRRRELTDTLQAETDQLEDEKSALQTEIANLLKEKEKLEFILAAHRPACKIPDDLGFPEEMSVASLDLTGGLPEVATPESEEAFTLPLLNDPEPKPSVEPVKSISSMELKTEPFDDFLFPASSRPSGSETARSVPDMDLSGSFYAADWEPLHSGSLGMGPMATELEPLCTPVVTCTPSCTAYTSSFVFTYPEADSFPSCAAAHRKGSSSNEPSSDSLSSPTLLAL

In the case of `CC(=O)Oc1ccccc1C(=O)O` [aspirin], the “DARTS (Pronase proteolysis, western blot)” value on SDHC was “aspirin can specifically bind to SDHA and SDHC, but not SDHB and SDHD”; on SDHA, “aspirin can specifically bind to SDHA and SDHC, but not SDHB and SDHD”.

B1: SDHB promoter -1135 CpG, methylated (dsDNA)
DNA 1: ACTCAAGCCAGTAAGCGTCAGAGATGAATA
DNA 2: TATTCATCTCTGACGCTTACTGGCTTGAGT
modifications: 5mC at C16 of strand 1; methylation of the complement not stated
As to B1, the binding result with MBD1 was “binds”.

B2: SDHB promoter c-Fos binding region (dsDNA)
DNA 1: ACAGAAAGGGCTGACTCAAGCCAGTAAGCG
DNA 2: CGCTTACTGGCTTGAGTCAGCCCTTTCTGT
B2: the binding result in the data set with c-Fos is recorded as “binds”.

B3: SDHB promoter -1172/-1165 CpG, methylated (dsDNA)
DNA 1: GGCAAGCTGCACGGTATGCGACAGAAAGGG
DNA 2: CCCTTTCTGTCGCATACCGTGCAGCTTGCC
modifications: 5mC at C12 and C19 of strand 1; methylation of the complement not stated
Take B3: in the data set with MBD1, the binding result is recorded as “binds”.

Source of the values: PMC8187647, “Low chorionic villous succinate accumulation associates with recurrent spontaneous abortion risk” (Nature Communications, 2021).
